What follows are binders tested against recombinant programmed cell death protein 1 (PD-1) (Homo sapiens, UniProt Q15116).
Chain of recombinant programmed cell death protein 1 (PD-1) (Q15116 25-170): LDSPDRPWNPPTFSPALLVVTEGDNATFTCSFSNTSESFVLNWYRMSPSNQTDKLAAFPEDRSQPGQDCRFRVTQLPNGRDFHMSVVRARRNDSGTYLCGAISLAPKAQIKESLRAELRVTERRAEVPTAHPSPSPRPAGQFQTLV

| Binder | binding result |
| --- | --- |
| SJL-564-1 (antibody, V domains shown) VH: QAYLQQSGAELARPGASVKLSCKASGYTFTSYGISWVKQRTGQGLEWIGEIYPRSGNTYYNEKFKGKATLTADKSSSTAYMELRSLTSEDSAVYFCARSTYSNYVYAMDYWGQGTSVTVSS VL: DVVLTQTPLSLPVSLGDQASISCRSSQSIVHSNGNTYLEWYLQKPGQSPKLLIYKVSNRFSGVPDRFSGSGSGTDFTLKISRVEAEDLGVYYCFQGSHVPYTFGGGTKLEIK | binds |
| SJL-565-1 (antibody, V domains shown) VH: QAYLQQSGPELVKPGASVKISCKASGYTFTDYYINWVKQRPGQGLEWIGWIYPGSGNTKYNEKFKGKATLTVDTSSSTAYMQLSSLTSEDSAVYFCARSVYDYDEDWGQGTRVTVSA VL: DIVMTQSQKFMSTSVGDRVSVTCKASQNVGTNVAWYQQKPGQSPKALIYSASYRYSGVPDRFTGSGSGTDFTLTISNVQSEDLAEYFCQQYNSYPFTFGSGTKLEIK | binds |
| SJL-565-3 (antibody, V domains shown) VH: QAYLQQSGPELVKPGASVKISCKASGYTFTDYYINWVKQRPGQGLEWIGWIYPGSGNTKYNEKFKGKATLTVDTSSSTAYMHVSSLTSEDSAVYFCSSSRYDYDEDWGQGTLVTVSA VL: DIVMTQSQKFMSTSVGDRVSVTCKASQNVGTNVAWYQQKPGQSPKALIYSASYRYSGVPDRFTGSGSGTDFTLTISNVQSEDLAEYFCQQYNSYPFTFGSGTKLEIK | binds |
| Balb-1 (antibody, V domains shown) VH: QAYLQQSGPELKKPGETVKISCKASGYTFTNYGMNWVKQAPGKGLKWMGWINTNTGEPTYAEEFKGRFAFSLETSASTAYLQINNLKNEDTATYFCASNYYWYFDVWGAGTTVTVSS VL: DVVLTQSPATLSVTPGDSVSLSCRASQSISNNLHWYQQKSHESPRLLIKYASQSISGIPSRFSGSGSGTDFTLSINSVETEDFGMYFCQQSNSWPLTFGAGTKLELK | binds |

Reference: paper PMC5680806 (mAbs, 2017)
